{"source": "paper PMC6753478", "about": "(Nucleic Acids Research, 2019)", "binders": {"B1": {"name": "staufen1 (STAU1), endogenous (natural protein, human (endogenous in HEK293T), UniProt O95793 1-577, looked up)", "chain": "MSQVQVQVQNPSAALSGSQILNKNQSLLSQPLMSIPSTTSSLPSENAGRPIQNSALPSASITSTSAAAESITPTVELNALCMKLGKKPMYKPVDPYSRMQSTYNYNMRGGAYPPRYFYPFPVPPLLYQVELSVGGQQFNGKGKTRQAAKHDAAAKALRILQNEPLPERLEVNGRESEEENLNKSEISQVFEIALKRNLPVNFEVARESGPPHMKNFVTKVSVGEFVGEGEGKSKKISKKNAAIAVLEELKKLPPLPAVERVKPRIKKKTKPIVKPQTSPEYGQGINPISRLAQIQQAKKEKEPEYTLLTERGLPRRREFVMQVKVGNHTAEGTGTNKKVAKRNAAENMLEILGFKVPQAQPTKPALKSEEKTPIKKPGDGRKVTFFEPGSGDENGTSNKEDEFRMPYLSHQQLPAGILPMVPEVAQAVGVSQGHHTKDFTRAAPNPAKATVTAMIARELLYGGTSPTAETILKNNISSGHVPHGPLTRPSEQLDYLSRVQGFQVEYKDFPKNNKNEFVSLINCSSQPPLISHGIGKDVESCHDMAALNILKLLSELDQQSTEMPRTGNGPMSVCGRC"}}, "biological_target": "T1, FLAG-UPF1 (UniProt Q92900-2 1-1118)", "T1 sequence (looked up)": "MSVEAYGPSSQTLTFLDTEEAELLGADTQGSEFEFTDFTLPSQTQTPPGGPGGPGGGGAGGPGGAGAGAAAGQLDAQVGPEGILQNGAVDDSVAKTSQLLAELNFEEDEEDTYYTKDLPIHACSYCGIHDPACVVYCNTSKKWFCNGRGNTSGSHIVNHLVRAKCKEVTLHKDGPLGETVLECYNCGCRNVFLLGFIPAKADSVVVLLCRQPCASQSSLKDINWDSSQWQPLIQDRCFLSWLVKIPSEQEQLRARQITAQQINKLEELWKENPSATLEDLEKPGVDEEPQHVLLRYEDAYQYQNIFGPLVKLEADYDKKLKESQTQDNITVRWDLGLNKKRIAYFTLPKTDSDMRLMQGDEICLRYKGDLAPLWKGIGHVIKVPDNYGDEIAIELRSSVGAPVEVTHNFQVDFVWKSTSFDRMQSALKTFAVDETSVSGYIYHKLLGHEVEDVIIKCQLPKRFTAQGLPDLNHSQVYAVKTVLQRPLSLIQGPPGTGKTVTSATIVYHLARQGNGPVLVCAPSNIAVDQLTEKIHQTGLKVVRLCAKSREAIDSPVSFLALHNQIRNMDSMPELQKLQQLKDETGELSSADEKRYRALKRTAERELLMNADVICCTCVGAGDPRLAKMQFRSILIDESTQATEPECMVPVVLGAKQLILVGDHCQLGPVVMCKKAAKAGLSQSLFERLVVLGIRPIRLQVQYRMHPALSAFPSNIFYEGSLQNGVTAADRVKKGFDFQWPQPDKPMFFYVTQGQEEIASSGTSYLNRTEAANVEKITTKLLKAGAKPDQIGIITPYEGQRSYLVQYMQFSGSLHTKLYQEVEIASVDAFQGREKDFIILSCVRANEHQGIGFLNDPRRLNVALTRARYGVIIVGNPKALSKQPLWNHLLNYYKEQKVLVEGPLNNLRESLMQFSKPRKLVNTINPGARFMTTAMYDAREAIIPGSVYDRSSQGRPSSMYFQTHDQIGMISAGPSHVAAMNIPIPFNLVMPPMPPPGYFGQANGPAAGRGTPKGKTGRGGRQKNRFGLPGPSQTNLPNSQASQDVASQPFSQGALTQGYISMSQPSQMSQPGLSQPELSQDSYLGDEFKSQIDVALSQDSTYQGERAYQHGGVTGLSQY", "assay": "co-IP", "data": [{"binder": "B1", "values": [{"measurement": "fold change of the association after IR exposure, against untreated cells", "value": 3.1, "unit": "fold"}]}]}
